The source of these data is patent US12139520B2 (priority 2020, dated 2024).

The target of one test is hAM1R (human, UniProt Q16602). Nature of the test: cell-based or functional assay.
The target of a further test is T1, hAMY3R (human, UniProt P30988).
T1 sequence 1: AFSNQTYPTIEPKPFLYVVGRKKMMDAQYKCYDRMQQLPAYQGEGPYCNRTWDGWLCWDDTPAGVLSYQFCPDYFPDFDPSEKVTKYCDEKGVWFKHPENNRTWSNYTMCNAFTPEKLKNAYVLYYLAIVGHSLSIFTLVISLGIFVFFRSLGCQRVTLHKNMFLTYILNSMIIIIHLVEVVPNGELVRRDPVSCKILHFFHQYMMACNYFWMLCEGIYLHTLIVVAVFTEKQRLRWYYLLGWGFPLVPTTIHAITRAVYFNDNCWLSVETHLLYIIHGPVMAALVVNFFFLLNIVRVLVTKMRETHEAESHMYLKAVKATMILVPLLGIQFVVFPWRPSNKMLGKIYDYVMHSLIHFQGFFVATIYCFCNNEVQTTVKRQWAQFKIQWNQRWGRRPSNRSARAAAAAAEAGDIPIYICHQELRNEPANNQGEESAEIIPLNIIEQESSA
T1 sequence 2: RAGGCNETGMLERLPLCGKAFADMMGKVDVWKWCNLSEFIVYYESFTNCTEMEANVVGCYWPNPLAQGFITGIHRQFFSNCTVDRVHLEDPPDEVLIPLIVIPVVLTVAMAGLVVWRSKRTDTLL
The experiment in a line: cell-based or functional assay.

Numbered stars: 1 amine (or outer) side, 2 acyl side, 3 side chain; on linkers, the order of the positions; unused ones are H or OH. Bridge positions count the residues as written; N and C are the ends. Square brackets hold non-standard residues; d marks the D form. Ends that are not written are not given here. * marks the point of attachment. C20 diacid = O=C(O)CCCCCCCCCCCCCCCCCCC(=O)*; γGlu = O=C(O)[C@H](CCC(=O)[*:2])N[*:1]; Hyp = O=C(O)[C@@H]1C[C@@H](O)CN1

In the case of GCRTGTCTVQRLAHQIYQFTDKFKDNVAPRSKISPQH[Hyp]-NH2 (disulfide 2-7 (inferred); ends not checked) [SEQ ID NO: 201], in the test with hAM1R, the “hAM1R EC50 (cAMP)” value came out at 4880 nM. The “hAMY3R EC50 (cAMP)” value with hAMY3R was determined as 0.126 nM.

As to GCRMGTCTVQRLAHQIYQFTNKDKDNVAPRSKISPQT[Hyp]-NH2 (disulfide 2-7 (inferred); ends not checked) [SEQ ID NO: 192], in the test with hAM1R, the “hAM1R EC50 (cAMP)” value was above 5000 nM. The “hAMY3R EC50 (cAMP)” value with hAMY3R was 0.098 nM.

Turning to GCRTGTCTVQRLAHQIYQFTDKFKDNVAPRSKISPQY[Hyp]-NH2 (disulfide 2-7 (inferred); ends not checked) [SEQ ID NO: 186], the “hAM1R EC50 (cAMP)” value with hAM1R was above 5000 nM. For the same molecule, in the test with hAMY3R, the “hAMY3R EC50 (cAMP)” value was determined as 0.091 nM.

Regarding GCRTGTCTVQRLAHQIAQFTDKFKDNVAPRSKISPQT[Hyp]-NH2 (disulfide 2-7 (inferred); ends not checked) [SEQ ID NO: 196], the “hAM1R EC50 (cAMP)” value with hAM1R is above 5000 nM. The “hAMY3R EC50 (cAMP)” value in the test with hAMY3R came to 0.114 nM.

Turning to GCRTGTCTVQRLAHQIYQFTDKDKDNVAPRTKISPQG[Hyp]-NH2 (disulfide 2-7 (inferred); ends not checked) [SEQ ID NO: 189], in the test with hAM1R, the “hAM1R EC50 (cAMP)” value was determined as 2980 nM. For the same molecule, the “hAMY3R EC50 (cAMP)” value in the test with hAMY3R is 0.096 nM.

Consider KCNTATCATQRLANFLVHSSNNFGAILPSTKIGSNTY [SEQ ID NO: 180], for which, in the test with hAM1R, the “hAM1R EC50 (cAMP)” value is above 5000 nM. Besides, the “hAMY3R EC50 (cAMP)” value with hAMY3R was found to be 0.082 nM.

Consider KCNTATCATQRLANFLVHSSNNFGAILPRTKVGSNGY [SEQ ID NO: 19], for which, in the test with hAM1R, the “hAM1R EC50 (cAMP)” value was above 5000 nM. Further, the “hAMY3R EC50 (cAMP)” value in the test with hAMY3R was found to be 0.008 nM.

As to GCRTGTCTVQRLAHQIYQFTDKDKDNVAPRTKISPNG[Hyp]-NH2 (disulfide 2-7 (inferred); ends not checked) [SEQ ID NO: 197], in the test with hAM1R, the “hAM1R EC50 (cAMP)” value was determined as 2980 nM. The “hAMY3R EC50 (cAMP)” value in the test with hAMY3R stood at 0.12 nM.

For GCRFGTCTVQRLAHQIYQFTDKDKDNVAPRSNISPQGY [SEQ ID NO: 182], in the test with hAM1R, the “hAM1R EC50 (cAMP)” value stood at 100 nM. Besides, the “hAMY3R EC50 (cAMP)” value in the test with hAMY3R is 0.085 nM.

Consider GCRTGTCTVQRLAHQIYQFTDKDKDNVAPRTKISPNGY [SEQ ID NO: 190], for which the “hAM1R EC50 (cAMP)” value in the test with hAM1R is 2980 nM. Further, in the test with hAMY3R, the “hAMY3R EC50 (cAMP)” value is 0.097 nM.

Consider GCRTGTCTVQRLAHQIYQFTDKDKDNVAPRSNIGPQGY [SEQ ID NO: 191], for which the “hAM1R EC50 (cAMP)” value in the test with hAM1R amounted to 2980 nM. Besides, the “hAMY3R EC50 (cAMP)” value with hAMY3R came out at 0.098 nM.

Turning to GCRTGTCTVQRLAHQIYQFTDKDKDNVAPRTNISPNGY [SEQ ID NO: 188], the “hAM1R EC50 (cAMP)” value with hAM1R worked out at 47.6 nM. The “hAMY3R EC50 (cAMP)” value with hAMY3R worked out at 0.094 nM.

As for GCRTGTCTVQRLAHQIYQFTDKDKDNVAPRTNISPQGY [SEQ ID NO: 199], the “hAM1R EC50 (cAMP)” value with hAM1R was 2980 nM. The “hAMY3R EC50 (cAMP)” value with hAMY3R was 0.124 nM.

For GCRTGTCTVQRLAHQIYQFTDKDKDNVAPRSNVSPQGY [SEQ ID NO: 183], the “hAM1R EC50 (cAMP)” value with hAM1R came out at 2980 nM. The “hAMY3R EC50 (cAMP)” value with hAMY3R is 0.088 nM.

For KCNTATCTVQRLAHQIYQFTDKDKDNVAPRTKVGSNG[Hyp]-NH2 (disulfide 2-7 (inferred); ends not checked) [SEQ ID NO: 20], the “hAM1R EC50 (cAMP)” value with hAM1R was above 5000 nM. Besides, the “hAMY3R EC50 (cAMP)” value with hAMY3R amounted to 0.008 nM.

Consider GCRTGTCTVQRLAHQIYQFTDKFKDNVAPRSKISPQW[Hyp]-NH2 (disulfide 2-7 (inferred); ends not checked) [SEQ ID NO: 185], for which, in the test with hAM1R, the “hAM1R EC50 (cAMP)” value is above 5000 nM. Further, in the test with hAMY3R, the “hAMY3R EC50 (cAMP)” value was 0.09 nM.

Turning to GCRTGTCTVQRLAHQIYQFTDKDKDNVAPRSKIGPQG[Hyp]-NH2 (disulfide 2-7 (inferred); ends not checked) [SEQ ID NO: 179], the “hAM1R EC50 (cAMP)” value with hAM1R came to 2980 nM. Also, the “hAMY3R EC50 (cAMP)” value with hAMY3R is 0.082 nM.

Consider {C20 diacid-γGlu}-GCRFGTCTVQRLAHFLYQFTDKDKDNVAPRTNVGPQGY-NH2 (disulfide 2-7 (inferred); ends not checked) [SEQ ID NO: 200], for which the “hAM1R EC50 (cAMP)” value with hAM1R was found to be 38.2 nM. The “hAMY3R EC50 (cAMP)” value in the test with hAMY3R was 0.126 nM.

As to GCRIGTCTVQRLAHQIYQFTNKDKDNVAPRSKISPQT[Hyp]-NH2 (disulfide 2-7 (inferred); ends not checked) [SEQ ID NO: 198], the “hAM1R EC50 (cAMP)” value in the test with hAM1R is 3960 nM. For the same molecule, the “hAMY3R EC50 (cAMP)” value with hAMY3R came to 0.122 nM.

GCRTGTCTVQRLAHQIYQFTDKFKDNVAPRSKISPQTW [SEQ ID NO: 184]: the “hAM1R EC50 (cAMP)” value with hAM1R worked out at 4500 nM. In the test with hAMY3R, the “hAMY3R EC50 (cAMP)” value stood at 0.09 nM.

For the molecule GCRTGTCTVQRLAHQIYQFTDKDKDNVAPRTNVSPQG[Hyp]-NH2 (disulfide 2-7 (inferred); ends not checked) [SEQ ID NO: 178], the “hAM1R EC50 (cAMP)” value with hAM1R amounted to 2980 nM. The “hAMY3R EC50 (cAMP)” value with hAMY3R is 0.08 nM.

In the case of KCNTATCTVQRLAHQIYQTDKDKDNVAPPTNVGSNG[Hyp]-NH2 (disulfide 2-7 (inferred); ends not checked) [SEQ ID NO: 195], the “hAM1R EC50 (cAMP)” value with hAM1R was above 5000 nM. Also, the “hAMY3R EC50 (cAMP)” value with hAMY3R turned out to be 0.112 nM.

With KCRMGTCTVQRLAHQIYQFTDKDKDNVAPRSKISPQT[Hyp]-NH2 (disulfide 2-7 (inferred); ends not checked) [SEQ ID NO: 194], the “hAM1R EC50 (cAMP)” value with hAM1R came out at 3530 nM. Besides, the “hAMY3R EC50 (cAMP)” value with hAMY3R was determined as 0.112 nM.

Regarding KCNTATCTVQRLAHQIYFTDKDKDNVAPPTNVGSNG[Hyp]-NH2 (disulfide 2-7 (inferred); ends not checked) [SEQ ID NO: 181], the “hAM1R EC50 (cAMP)” value with hAM1R was above 5000 nM. In the test with hAMY3R, the “hAMY3R EC50 (cAMP)” value stood at 0.082 nM.

Regarding GCRTGTCTVQRLAHQIYQFTDKDKDNVAPRSKVGPQG[Hyp]-NH2 (disulfide 2-7 (inferred); ends not checked) [SEQ ID NO: 187], the “hAM1R EC50 (cAMP)” value in the test with hAM1R was determined as 2980 nM. Also, the “hAMY3R EC50 (cAMP)” value in the test with hAMY3R came out at 0.093 nM.

Take GCRTGTCTVQRLAHQIHQFTDKFKDNVAPRSKISPQT[Hyp]-NH2 (disulfide 2-7 (inferred); ends not checked) [SEQ ID NO: 193]: the “hAM1R EC50 (cAMP)” value with hAM1R was above 5000 nM. For the same molecule, in the test with hAMY3R, the “hAMY3R EC50 (cAMP)” value came out at 0.099 nM.
